The target in assay [1] is T1, human DLL3 on cells (human, UniProt Q9NYJ7 27-618).
T1 construct: Endogenous on H1184 and SHP77; Cell line is named under assay; also called H1184; DLL3/H82
T1 sequence: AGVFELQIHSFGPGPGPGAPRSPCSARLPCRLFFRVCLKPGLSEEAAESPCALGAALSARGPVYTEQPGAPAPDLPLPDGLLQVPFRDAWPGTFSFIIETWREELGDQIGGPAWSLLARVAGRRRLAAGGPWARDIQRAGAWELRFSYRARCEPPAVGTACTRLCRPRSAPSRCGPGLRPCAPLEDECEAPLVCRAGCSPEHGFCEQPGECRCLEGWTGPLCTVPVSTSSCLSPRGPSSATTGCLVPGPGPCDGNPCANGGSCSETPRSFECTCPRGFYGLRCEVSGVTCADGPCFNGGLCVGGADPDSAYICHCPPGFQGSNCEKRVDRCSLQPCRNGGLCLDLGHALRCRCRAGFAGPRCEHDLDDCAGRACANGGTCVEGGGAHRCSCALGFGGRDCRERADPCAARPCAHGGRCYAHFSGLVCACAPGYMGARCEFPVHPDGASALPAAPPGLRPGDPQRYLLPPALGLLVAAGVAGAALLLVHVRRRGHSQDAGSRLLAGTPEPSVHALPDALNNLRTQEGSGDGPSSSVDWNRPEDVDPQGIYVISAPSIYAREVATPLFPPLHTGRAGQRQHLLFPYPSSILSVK
Nature of the assay: flow cytometry, DLL3/H82 cells. The procedure: The plates were centrifuged at 300 g for 5 min, and the supernatant was removed. Different concentrations of test antibodies were added at 100 μL/well. The plates were incubated in the dark in a refrigerator at 4° C. for 1 h. After 3 centrifugal washes at 300 g, working concentrations of APC anti-human IgG Fc (BioLegend, 410712) or PE F(ab′)2-goat anti-human IgG (invitrogen, H10104) were added. The plates were incubated in the dark in a refrigerator at 4° C. for 40 min. After 3 centrifugal washes at 300 g, the geometric mean fluorescence intensity was measured on an Invitrogen flow cytometer, and the EC50 values for the binding of the antibodies to DLL3-expressing cells were calculated.
(A flow cytometer gives signals particle by particle.)

For assay [2], the target named is T2, human DLL3 (ACRO, DLL3-H52H4) (human, UniProt Q9NYJ7 27-492).
T2 construct: Bought
T2 sequence: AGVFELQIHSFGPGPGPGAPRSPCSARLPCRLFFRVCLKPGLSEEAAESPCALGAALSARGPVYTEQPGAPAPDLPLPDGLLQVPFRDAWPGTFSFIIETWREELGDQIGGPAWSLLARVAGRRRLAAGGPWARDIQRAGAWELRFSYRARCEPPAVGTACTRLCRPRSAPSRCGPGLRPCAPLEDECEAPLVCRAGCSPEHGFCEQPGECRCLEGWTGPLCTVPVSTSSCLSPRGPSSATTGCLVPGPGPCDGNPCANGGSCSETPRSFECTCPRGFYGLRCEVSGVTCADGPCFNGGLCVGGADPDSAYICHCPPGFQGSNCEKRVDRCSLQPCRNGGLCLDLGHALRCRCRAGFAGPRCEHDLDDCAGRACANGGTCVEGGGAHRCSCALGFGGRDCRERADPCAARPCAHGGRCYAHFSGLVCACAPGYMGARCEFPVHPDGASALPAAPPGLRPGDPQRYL
Nature of the assay: SPR Biacore 8K, Ab captured on Protein A. The essentials: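 Antibodies captured on a Protein A chip for 18 s; DLL3 or CD3D&3E antigen flowed 180 s, then 600 s dissociation, with real-time detection. Regeneration used 10 mM glycine-HCl pH 1.5 between cycles. Kinetics were obtained by 1:1 model fitting.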
For orientation: In SPR one partner is held on a chip, and binding of the other changes the refractive index at the surface.

The target of assay [3] is T3, hCTLA4 (human, UniProt P16410 36-162, limits assumed).
T3 construct: bought
Nature of the assay: ELISA.

Assay [4] deals with T4, hPDL1 (human, UniProt Q9NZQ7 19-239).
T4 construct: bought
In words: ELISA. (In general: ELISA stands for enzyme-linked immunosorbent assay.)

One may read the EC50 as the concentration needed to bring the measured effect to its halfway point. A lower EC50 goes with an effect from little substance. For orientation: Kd means the concentration at which binding is half-saturated. Higher therefore signals lower affinity. A word on the koff: it is a measure of how fast the partners let go of each other. The low end stands for slow dissociation, the high end for fast dissociation. A word on the kon: it is a measure of how fast the partners come together.

Positions count from the first letter of the chain named.

T4 sequence (Q9NZQ7 19-239 limits assumed): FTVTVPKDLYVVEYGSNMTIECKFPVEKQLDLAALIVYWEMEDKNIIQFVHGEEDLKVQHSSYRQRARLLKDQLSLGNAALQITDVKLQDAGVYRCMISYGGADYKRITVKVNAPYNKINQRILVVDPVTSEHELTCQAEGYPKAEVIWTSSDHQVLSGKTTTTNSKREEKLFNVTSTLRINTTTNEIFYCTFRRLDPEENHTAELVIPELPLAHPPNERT
T3 sequence (P16410 36-162 limits assumed): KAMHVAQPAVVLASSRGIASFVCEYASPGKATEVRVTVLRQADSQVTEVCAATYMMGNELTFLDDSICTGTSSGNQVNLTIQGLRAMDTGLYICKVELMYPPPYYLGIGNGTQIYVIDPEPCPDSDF

B1: hu110L1H5 (antibody, human IgG1, kappa, V domains shown)
VH: EVQLVQSGAEVKKPGASVKVSCKTSGYTFTDYYMNWVRQAPGQSLEWMGIINPYTGGTSYTQKFKGRVTITVDKSASTAYMELSSLRSEDTAVYYCARHFYDSSYLTYSTMDYWGQGTTVTVSS
VL: DIVMTQSPDSLAVSLGERATINCKASENVGIFVSWYQQKPGQSPKLLIYGASNRYTGVPDRFSGSGSATDFTLTISSLQAEDVAVYYCGQSHSYPLTFGQGTKLEIKR
In assay [1], B1 showed an EC50 of 1.61 nM and an Emax of 4610. In assay [2], this molecule gave a dissociation constant (Kd) of 0.141 nM, an off-rate constant (koff) of 6.41e-05 s⁻¹ and a kon of 454000 M⁻¹ s⁻¹.

B2: hu110L2H4 (antibody, human IgG1, kappa, V domains shown)
VH: B1 VH with T55S
VL: B1 VL with D1N, D9K, V85D
B2: in assay [1], the EC50 is 1.41 nM and the Emax is 4600. In assay [2], the equilibrium dissociation constant (Kd) stood at 0.103 nM, the koff worked out at 5.11e-05 s⁻¹ and the kon was found to be 496000 M⁻¹ s⁻¹.

B3: hu110L1H6 (antibody, human IgG1, kappa, V domains shown)
VH: B1 VH with T55N, G56V
VL: B1 VL
In assay [1], B3 had an EC50 of 1.66 nM and an Emax of 4620. In assay [2], this molecule had a Kd of 0.102 nM, a koff of 5.32e-05 s⁻¹ and a kon of 520000 M⁻¹ s⁻¹.

B4: hu110L2H3 (antibody, human IgG1, kappa, V domains shown)
VH: B1 VH with T55Q
VL: B1 VL with D1N, D9K, V85D
As to B4, in assay [1], the EC50 was 1.32 nM and the Emax was 4570. In assay [2], this molecule had a Kd of 0.117 nM, an off-rate constant (koff) of 6.45e-05 s⁻¹ and an association rate constant (kon) of 550000 M⁻¹ s⁻¹.

B5: hu110L2H5 (antibody, human IgG1, kappa, V domains shown)
VH: B1 VH
VL: B1 VL with D1N, D9K, V85D
As for B5, in assay [1], the midpoint of the response, the EC50, lay at 1.71 nM and the Emax was 4670. Moreover, in assay [2], the equilibrium dissociation constant (Kd) was found to be 0.206 nM, the koff was determined as 8.96e-05 s⁻¹ and the association rate constant (kon) came to 434000 M⁻¹ s⁻¹.

B6: hu110L2H6 (antibody, human IgG1, kappa, V domains shown)
VH: B1 VH with T55N, G56V
VL: B1 VL with D1N, D9K, V85D
Take B6: in assay [1], the EC50 amounted to 1.4 nM and the Emax is 5190. In assay [2], this molecule registered a Kd of 0.167 nM, an off-rate constant (koff) of 6.86e-05 s⁻¹ and a kon of 411000 M⁻¹ s⁻¹.

B7: hu110L2H2 (antibody, human IgG1, kappa, V domains shown)
VH: B1 VH with T55N
VL: B1 VL with D1N, D9K, V85D
In assay [1], B7 yielded an EC50 of 1.25 nM and an Emax of 4750. In assay [2], this molecule showed a Kd of 0.12 nM, a koff of 6.25e-05 s⁻¹ and an on-rate constant (kon) of 521000 M⁻¹ s⁻¹.

B8: hu110L2H1 (antibody, human IgG1, kappa, V domains shown)
VH: B1 VH with T24A, S44R, T55N
VL: B1 VL with D1N, D9K, V85D
In assay [1], B8 gave an EC50 of 1.25 nM and an Emax of 4720. In assay [2], this molecule yielded a Kd of 0.115 nM, a koff of 5.84e-05 s⁻¹ and a kon of 509000 M⁻¹ s⁻¹.

B9: PL-1 (bispecific antibody)
chain 1: not shown
chain 2: DIVLTQSPASLAVSPGQRATITCRASESVSIHGTHLMHWYQQKPGQPPKLLIYAASKLESGVPARFSGSGSGTDFTLTINPVEAEDTANYYCQQSFEDPLTFGQGTKLEIKGGGGSGIPPKIECLPIDISIDEGKVLTVASAFTGEPTPEVTWSTGGRKIHSQEQGRFHIENTDDLTTLIIKDVQKQDGGLYTLTLRNEFGSDSATVNIHIRSI
chain 3: not shown
chain 4: not shown
Take B9: the EC50 was found to be 16.5 nM in assay [3] and 1.6 nM in assay [4].

B10: PL-10 (bispecific antibody)
chain 1: not shown
chain 2: B9 chain 2 with A142C, L176S, I180T
chain 3: not shown
chain 4: not shown
B10: the EC50 in assay [3] is 6.9 nM; in assay [4], 0.6 nM.

B11: PL-5 (bispecific antibody)
chain 1: not shown
chain 2: B9 chain 2 with L176S, I180T
chain 3: not shown
chain 4: not shown
Consider B11, for which the half-maximal effective concentration (EC50) in assay [3] came to 6.7 nM; in assay [4], 0.7 nM.

B12: PL-9 (bispecific antibody)
chain 1: not shown
chain 2: B9 chain 2 with V136C, L176S, I180T
chain 3: not shown
chain 4: not shown
B12: the EC50 in assay [3] was 5.5 nM; in assay [4], 0.6 nM.

B13: PL-12 (bispecific antibody)
chain 1: not shown
chain 2: B9 chain 2 with G112R, G113T, G114V, G115A, V136C, L176S, I180T
chain 3: not shown
chain 4: not shown
In the case of B13, the figures for the EC50 in assay [3] and in assay [4] were 8 nM and 0.5 nM, respectively.

B14: PL-18 (bispecific antibody)
chain 1: not shown
chain 2: B9 chain 2 with G112R, G113T, G114V, G115A, V136C, L176S, I180T
chain 3: not shown
chain 4: not shown
Regarding B14, the 50% effective concentration (EC50) in assay [3] was 6.7 nM; in assay [4], 1.6 nM.

B15: PL-7 (bispecific antibody)
chain 1: not shown
chain 2: B9 chain 2 with A142C, L176S, I180T
chain 3: not shown
chain 4: not shown
For the molecule B15, the values for the EC50 in assay [3] and in assay [4] were 7.3 nM and 0.5 nM, respectively.

B16: PL-17 (bispecific antibody)
chain 1: not shown
chain 2: B9 chain 2 with G112R, G113T, G114V, G115A, L176S, I180T
chain 3: not shown
chain 4: not shown
As to B16, the concentration giving a half-maximal response (EC50) in assay [3] worked out at 6.2 nM; in assay [4] it was 1.4 nM.

B17: PL-8 (bispecific antibody)
chain 1: not shown
chain 2: B9 chain 2 with L176S, I180T
chain 3: not shown
chain 4: not shown
On to B17, for which the EC50 in assay [3] is 14.5 nM; in assay [4], 1.4 nM.

B18: PL-14 (bispecific antibody)
chain 1: not shown
chain 2: B9 chain 2 with G112R, G113T, G114V, G115A, L176S, I180T
chain 3: not shown
chain 4: not shown
As to B18, the EC50 in assay [3] turned out to be 6 nM; in assay [4] it was 1.3 nM.

B19: PL-15 (bispecific antibody)
chain 1: not shown
chain 2: B9 chain 2 with G112R, G113T, G114V, G115A, V136C, L176S, I180T
chain 3: not shown
chain 4: not shown
For B19, the 50% effective concentration (EC50) in assay [3] amounted to 3.2 nM; in assay [4], 1.4 nM.

B20: PL-19 (bispecific antibody)
chain 1: not shown
chain 2: B9 chain 2 with G112R, G113T, G114V, G115A, A142C, L176S, I180T
chain 3: not shown
chain 4: not shown
Regarding B20, the EC50 in assay [3] amounted to 6.5 nM; in assay [4], 1.6 nM.

B21: PL-2 (bispecific antibody)
chain 1: not shown
chain 2: B9 chain 2 with L176S, I180T
chain 3: not shown
chain 4: not shown
Take B21: the results for the EC50 in assay [3] and in assay [4] were 8 nM and 0.5 nM, respectively.

B22: PL-13 (bispecific antibody)
chain 1: not shown
chain 2: B9 chain 2 with G112R, G113T, G114V, G115A, A142C, L176S, I180T
chain 3: not shown
chain 4: not shown
Regarding B22, the concentration for a half-maximal effect (EC50) worked out at 4.4 nM in assay [3] and 0.5 nM in assay [4].

B23: PL-16 (bispecific antibody)
chain 1: not shown
chain 2: B9 chain 2 with G112R, G113T, G114V, G115A, A142C, L176S, I180T
chain 3: not shown
chain 4: not shown
As to B23, the EC50 was 34.9 nM in assay [3] and 1.7 nM in assay [4].

B24: PL-6 (bispecific antibody)
chain 1: not shown
chain 2: B9 chain 2 with V136C, L176S, I180T
chain 3: not shown
chain 4: not shown
Turning to B24, the EC50 in assay [3] came out at 5.3 nM; in assay [4], 0.8 nM.

B25: PL-4 (bispecific antibody)
chain 1: not shown
chain 2: B9 chain 2 with A142C, L176S, I180T
chain 3: not shown
chain 4: not shown
Regarding B25, the figures for the EC50 in assay [3] and in assay [4] were 6.5 nM and 0.7 nM, respectively.

B26: PL-3 (bispecific antibody)
chain 1: not shown
chain 2: B9 chain 2 with V136C, L176S, I180T
chain 3: not shown
chain 4: not shown
For the molecule B26, the results for the concentration giving a half-maximal response (EC50) in assay [3] and in assay [4] were 7.9 nM and 0.6 nM, respectively.

B27: PL-11 (bispecific antibody)
chain 1: not shown
chain 2: B9 chain 2 with G112R, G113T, G114V, G115A, L176S, I180T
chain 3: not shown
chain 4: not shown
On to B27, for which the concentration giving a half-maximal response (EC50) in assay [3] was determined as 5.6 nM; in assay [4], 0.6 nM.

Source of the values: patent US20250376519A1 (JIANGSU HENGRUI PHARMACEUTICALS, published 2025).
